In patent US20110206727A1 one finds Frequency (fraction of sequenced phage clones) data, which are given here for 2 substances.

For the assay, the target named is OmpC porin purified from Salmonella typhi (Salmonella enterica subsp. enterica serovar Typhi). In words: phage display panning on OmpC; frequency among 8 sequenced binding phage.

In turn, OmpC affinity peptide SLSLIQT showed a Frequency (fraction of sequenced phage clones) of 0.125.
Next, OmpC affinity peptide TATYLLD: 0.125.
